T1: GST-Prp40FF1 (amino acids 129-201) (Saccharomyces cerevisiae, UniProt P33203 129-201)
T1 construct: Prp40, S. cerevisiae, residues 129-201 (Prp40FF1); also called GST-FF1; source: E. coli BL21, purified (glutathione Sepharose 4B)
T1 sequence (looked up): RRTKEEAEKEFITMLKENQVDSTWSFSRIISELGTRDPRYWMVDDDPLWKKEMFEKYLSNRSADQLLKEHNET

T2: GST-Prp40FF1-2 (amino acids 129-264) (Saccharomyces cerevisiae, UniProt P33203 129-264)
T2 construct: Prp40, S. cerevisiae, residues 129-264 (Prp40FF1-2); also called GST-FF1-2; source: E. coli BL21, purified (glutathione Sepharose 4B)
T2 sequence (looked up): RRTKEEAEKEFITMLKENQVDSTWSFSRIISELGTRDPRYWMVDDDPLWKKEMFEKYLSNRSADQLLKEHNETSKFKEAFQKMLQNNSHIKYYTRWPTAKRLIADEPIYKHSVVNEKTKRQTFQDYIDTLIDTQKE


What was measured:
[1] = biological target: T1, GST-Prp40FF1 (amino acids 129-201); test: peptide or protein array; SPOT 15-mer peptides (3 aa shifts; alanine scan and substitution analysis of A24) on a β-alanine membrane, probed overnight at 4°C with 10 μg/ml purified GST fusion protein, detected with anti-GST antibody; conditions: both partners purified
[2] = biological target: T2, GST-Prp40FF1-2 (amino acids 129-264); test: as above; conditions: both partners purified

Row | binding result [1] | binding result [2] | Binder
1 | binds | binds | DRRLADHFLGKIHLG (also called A24 peptide) [Luc7 peptide A24, D214RRLADHFLGKIHLG228]
2 |  | binds | HLANDVHYDHHRSFK (Snu71, S. cerevisiae, residues 418-432) [Snu71 peptide B1, H418LANDVHYDHHRSFK432]
